# Patent publication US20210317225A1 (Genmab, published 2021)
# What was measured:
# Human CD137 (TNR9_Human) = Human CD137 (TNR9_Human) (human, UniProt Q07011 24-255); assay: cell-based or functional assay
# Human CD40 = Human CD40 (human, UniProt P25942 21-277); assay: cell-based or functional assay
# Sequence of Human CD40 (P25942 21-277): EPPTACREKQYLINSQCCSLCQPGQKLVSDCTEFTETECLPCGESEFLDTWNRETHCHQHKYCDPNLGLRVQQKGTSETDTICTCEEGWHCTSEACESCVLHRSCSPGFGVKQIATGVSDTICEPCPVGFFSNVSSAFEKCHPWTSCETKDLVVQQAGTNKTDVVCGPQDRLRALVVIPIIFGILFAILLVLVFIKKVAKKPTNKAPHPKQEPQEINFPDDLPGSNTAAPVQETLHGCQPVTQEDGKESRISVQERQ
# Sequence of Human CD137 (TNR9_Human) (Q07011 24-255): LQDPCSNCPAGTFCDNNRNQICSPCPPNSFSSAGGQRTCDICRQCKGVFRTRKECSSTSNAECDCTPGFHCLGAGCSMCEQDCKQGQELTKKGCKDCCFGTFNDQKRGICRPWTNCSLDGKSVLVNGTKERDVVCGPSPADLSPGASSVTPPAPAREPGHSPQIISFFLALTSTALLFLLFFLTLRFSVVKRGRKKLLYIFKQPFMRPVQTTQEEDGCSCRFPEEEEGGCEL
"luciferase activity (RLU) of NF-KB/293/GFP-Luc cells transduced with CD137, incubated with K562_CD40 (Human CD137 (TNR9_Human)) [ng/mL]","luciferase activity (RLU) of NF-KB/293/GFP-Luc cells transduced with CD40, incubated with K562_CD137 (Human CD40) [ng/mL]","EC50 for induction of T-cell proliferation (antigen-specific CD8+ T-cell assay, proliferation index curves) (Human CD137 (TNR9_Human)) [µg/mL]",Binder
~100,~100,–,"CD40-001-FEALxCD137-007-FEAR (bispecific antibody, human IgG1, kappa) heavy 1: EVQLQQSGPDLVKPGASVKISCKTSGYTFTEYIMHWVKQSHGKSLEWIGGIIPNNGGTSYNQKFKDKATMTVDKSSSTGYMELRSLTSEDSAVYYCTRREVYGRNYYALDYWGQGTLVTVSSASTKGPSVFPLAPSSKSTSGGTAALGCLVKDYFPEPVTVSWNSGALTSGVHTFPAVLQSSGLYSLSSVVTVPSSSLGTQTYICNVNHKPSNTKVDKRVEPKSCDKTHTCPPCPAPEFEGGPSVFLFPPKPKDTLMISRTPEVTCVVVAVSHEDPEVKFNWYVDGVEVHNAKTKPREEQYNSTYRVVSVLTVLHQDWLNGKEYKCKVSNKALPAPIEKTISKAKGQPREPQVYTLPPSREEMTKNQVSLTCLVKGFYPSDIAVEWESNGQPENNYKTTPPVLDSDGSFLLYSKLTVDKSRWQQGNVFSCSVMHEALHNHYTQKSLSLSPGK light 1: DIQMTQTTSSLSASLGDRVTITCSASQGINNYLNWYQQKPDGTVKLLIYYTSSLHSGVPSRFSGSGSGTDYSLTISNLEPEDIATYYCQQYSNLPYTFGGGTKLEIKRTVAAPSVFIFPPSDEQLKSGTASVVCLLNNFYPREAKVQWKVDNALQSGNSQESVTEQDSKDSTYSLSSTLTLSKADYEKHKVYACEVTHQGLSSPVTKSFNRGEC heavy 2: QSLEESGGRLVTPGTPLTLTCTASGFSLSSYDVSWVRQAPGKGLEYIGFIGSDGSAHYATWVKGRFTISKTSTTVDLKITSPTTEDTATYFCARDWNDYWAHDLWGPGTLVTVSSASTKGPSVFPLAPSSKSTSGGTAALGCLVKDYFPEPVTVSWNSGALTSGVHTFPAVLQSSGLYSLSSVVTVPSSSLGTQTYICNVNHKPSNTKVDKRVEPKSCDKTHTCPPCPAPEFEGGPSVFLFPPKPKDTLMISRTPEVTCVVVAVSHEDPEVKFNWYVDGVEVHNAKTKPREEQYNSTYRVVSVLTVLHQDWLNGKEYKCKVSNKALPAPIEKTISKAKGQPREPQVYTLPPSREEMTKNQVSLTCLVKGFYPSDIAVEWESNGQPENNYKTTPPVLDSDGSFFLYSRLTVDKSRWQQGNVFSCSVMHEALHNHYTQKSLSLSPGK light 2: AQVLTQTTSPVSAAVGGTVTINCQASQIVTSKSALSWYQQKPGQPPRLLIYKASTLASGVPSRFSGSGSGTQFTLTISDLESDDAATYYCAGGYYNSGDLNPFGGGTEVVVKRTVAAPSVFIFPPSDEQLKSGTASVVCLLNNFYPREAKVQWKVDNALQSGNSQESVTEQDSKDSTYSLSSTLTLSKADYEKHKVYACEVTHQGLSSPVTKSFNRGEC"
~100,~100,0.03,"CD40-001-FEALxCD137-009-FEAR (bispecific antibody, human IgG1, kappa) heavy 1: EVQLQQSGPDLVKPGASVKISCKTSGYTFTEYIMHWVKQSHGKSLEWIGGIIPNNGGTSYNQKFKDKATMTVDKSSSTGYMELRSLTSEDSAVYYCTRREVYGRNYYALDYWGQGTLVTVSSASTKGPSVFPLAPSSKSTSGGTAALGCLVKDYFPEPVTVSWNSGALTSGVHTFPAVLQSSGLYSLSSVVTVPSSSLGTQTYICNVNHKPSNTKVDKRVEPKSCDKTHTCPPCPAPEFEGGPSVFLFPPKPKDTLMISRTPEVTCVVVAVSHEDPEVKFNWYVDGVEVHNAKTKPREEQYNSTYRVVSVLTVLHQDWLNGKEYKCKVSNKALPAPIEKTISKAKGQPREPQVYTLPPSREEMTKNQVSLTCLVKGFYPSDIAVEWESNGQPENNYKTTPPVLDSDGSFLLYSKLTVDKSRWQQGNVFSCSVMHEALHNHYTQKSLSLSPGK light 1: DIQMTQTTSSLSASLGDRVTITCSASQGINNYLNWYQQKPDGTVKLLIYYTSSLHSGVPSRFSGSGSGTDYSLTISNLEPEDIATYYCQQYSNLPYTFGGGTKLEIKRTVAAPSVFIFPPSDEQLKSGTASVVCLLNNFYPREAKVQWKVDNALQSGNSQESVTEQDSKDSTYSLSSTLTLSKADYEKHKVYACEVTHQGLSSPVTKSFNRGEC heavy 2: QSLEESGGRLVTPGTPLTLTCTVSGFSLNDYWMSWVRQAPGKGLEWIGYIDVGGSLYYASWAKGRFTISRTSTTVDLKMTSLTTEDTATYFCARGGLTYGFDLWGPGTLVTVSSASTKGPSVFPLAPSSKSTSGGTAALGCLVKDYFPEPVTVSWNSGALTSGVHTFPAVLQSSGLYSLSSVVTVPSSSLGTQTYICNVNHKPSNTKVDKRVEPKSCDKTHTCPPCPAPEFEGGPSVFLFPPKPKDTLMISRTPEVTCVVVAVSHEDPEVKFNWYVDGVEVHNAKTKPREEQYNSTYRVVSVLTVLHQDWLNGKEYKCKVSNKALPAPIEKTISKAKGQPREPQVYTLPPSREEMTKNQVSLTCLVKGFYPSDIAVEWESNGQPENNYKTTPPVLDSDGSFFLYSRLTVDKSRWQQGNVFSCSVMHEALHNHYTQKSLSLSPGK light 2: DIVMTQTPASVSEPVGGTVTINCQASEDISSYLAWYQQKPGQRPKRLIYGASDLASGVPSRFSASGSGTEYALTISDLESADAATYYCHYYATISGLGVAFGGGTEVVVKRTVAAPSVFIFPPSDEQLKSGTASVVCLLNNFYPREAKVQWKVDNALQSGNSQESVTEQDSKDSTYSLSSTLTLSKADYEKHKVYACEVTHQGLSSPVTKSFNRGEC"
~100,~100,–,"CD40-001-FEALxCD137-008-FEAR (bispecific antibody, human IgG1, kappa) heavy 1: EVQLQQSGPDLVKPGASVKISCKTSGYTFTEYIMHWVKQSHGKSLEWIGGIIPNNGGTSYNQKFKDKATMTVDKSSSTGYMELRSLTSEDSAVYYCTRREVYGRNYYALDYWGQGTLVTVSSASTKGPSVFPLAPSSKSTSGGTAALGCLVKDYFPEPVTVSWNSGALTSGVHTFPAVLQSSGLYSLSSVVTVPSSSLGTQTYICNVNHKPSNTKVDKRVEPKSCDKTHTCPPCPAPEFEGGPSVFLFPPKPKDTLMISRTPEVTCVVVAVSHEDPEVKFNWYVDGVEVHNAKTKPREEQYNSTYRVVSVLTVLHQDWLNGKEYKCKVSNKALPAPIEKTISKAKGQPREPQVYTLPPSREEMTKNQVSLTCLVKGFYPSDIAVEWESNGQPENNYKTTPPVLDSDGSFLLYSKLTVDKSRWQQGNVFSCSVMHEALHNHYTQKSLSLSPGK light 1: DIQMTQTTSSLSASLGDRVTITCSASQGINNYLNWYQQKPDGTVKLLIYYTSSLHSGVPSRFSGSGSGTDYSLTISNLEPEDIATYYCQQYSNLPYTFGGGTKLEIKRTVAAPSVFIFPPSDEQLKSGTASVVCLLNNFYPREAKVQWKVDNALQSGNSQESVTEQDSKDSTYSLSSTLTLSKADYEKHKVYACEVTHQGLSSPVTKSFNRGEC heavy 2: QSLEESGGRLVTPGTPLTLTCTASGFSLSSYDMSWVRQAPGKGLEYIGYISSSGNTYYASWAKSRFTISKTSTTVDLKITSPTTEDTATYFCAREGDYWDFNLWGPGTLVTVSSASTKGPSVFPLAPSSKSTSGGTAALGCLVKDYFPEPVTVSWNSGALTSGVHTFPAVLQSSGLYSLSSVVTVPSSSLGTQTYICNVNHKPSNTKVDKRVEPKSCDKTHTCPPCPAPEFEGGPSVFLFPPKPKDTLMISRTPEVTCVVVAVSHEDPEVKFNWYVDGVEVHNAKTKPREEQYNSTYRVVSVLTVLHQDWLNGKEYKCKVSNKALPAPIEKTISKAKGQPREPQVYTLPPSREEMTKNQVSLTCLVKGFYPSDIAVEWESNGQPENNYKTTPPVLDSDGSFFLYSRLTVDKSRWQQGNVFSCSVMHEALHNHYTQKSLSLSPGK light 2: AQVLTQTPSSVSAAVGGTVTINCQASQSISNLLAWYQQKPGQRPRLLIYRASTLASGVPSRFKGSGSGTEFTLTISDLESEDAATYYCAGGFPGLDTGATFGGGTEAVVTRTVAAPSVFIFPPSDEQLKSGTASVVCLLNNFYPREAKVQWKVDNALQSGNSQESVTEQDSKDSTYSLSSTLTLSKADYEKHKVYACEVTHQGLSSPVTKSFNRGEC"
